Data reported in PMC10680758.

Target: T1, eIF4G (unlabeled) (Saccharomyces cerevisiae, UniProt P39935 1-952)
T1 sequence: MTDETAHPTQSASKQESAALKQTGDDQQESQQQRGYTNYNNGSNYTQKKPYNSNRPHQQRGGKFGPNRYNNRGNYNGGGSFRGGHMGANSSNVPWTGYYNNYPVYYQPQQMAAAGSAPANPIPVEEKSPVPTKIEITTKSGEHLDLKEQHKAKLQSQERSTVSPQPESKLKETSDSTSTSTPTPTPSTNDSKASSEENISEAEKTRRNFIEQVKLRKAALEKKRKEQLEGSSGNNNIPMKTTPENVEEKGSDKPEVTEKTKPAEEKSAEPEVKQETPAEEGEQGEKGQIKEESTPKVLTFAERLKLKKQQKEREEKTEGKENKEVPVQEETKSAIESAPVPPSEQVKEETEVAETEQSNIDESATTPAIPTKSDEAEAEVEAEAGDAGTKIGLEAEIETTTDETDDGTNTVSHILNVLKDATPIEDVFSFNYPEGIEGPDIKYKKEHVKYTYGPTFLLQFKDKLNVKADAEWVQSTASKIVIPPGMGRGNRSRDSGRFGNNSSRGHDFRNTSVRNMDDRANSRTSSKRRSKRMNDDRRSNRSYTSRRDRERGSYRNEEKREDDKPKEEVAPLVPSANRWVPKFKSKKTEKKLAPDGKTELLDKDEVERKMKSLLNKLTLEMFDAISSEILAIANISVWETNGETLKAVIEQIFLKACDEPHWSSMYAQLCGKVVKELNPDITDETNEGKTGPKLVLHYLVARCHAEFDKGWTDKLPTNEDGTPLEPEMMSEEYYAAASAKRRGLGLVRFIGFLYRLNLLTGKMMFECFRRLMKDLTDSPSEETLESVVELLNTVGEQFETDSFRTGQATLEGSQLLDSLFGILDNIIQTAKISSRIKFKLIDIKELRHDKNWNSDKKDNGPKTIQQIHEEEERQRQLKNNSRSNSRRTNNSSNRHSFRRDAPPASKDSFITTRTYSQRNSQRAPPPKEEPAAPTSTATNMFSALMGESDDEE
Experiment: fluorescence anisotropy

B1: rpl41a 51mer-FAM (ssRNA)
RNA: GGAGACCACAUCGAUUCAAUCGAAAUGAGAGCCAAGUGGAGAAAGAAGAGA
B1: binds.
